Test results as given in paper doi:10.1101/2020.06.16.154534 (bioRxiv, 2020).
Where two headings read alike, the source gives them in different places.

Legend:
[1] = molecular target: the molecule itself; test: SAXS
[2] = molecular target: the molecule itself; test: SAXS; remark: listed apart in the source

B1: apo-bacterioferritin from E. coli (core-free, heme B bound) (natural protein)
chain: not shown
stoichiometry N [1]: 2 | stoichiometry N [2]: 24
